System: pCGS154 reporter
Experiment: Transient transfection of S2 Drosophila cells with luciferase reporter and EcR receptor plasmids
Format: cell-based
Conditions: for Assay # 1 Fold Activation With Chemistry / Assay # 2 Fold Activation With Chemistry: Example 6, 0.2 μM tebufenozide vs without chemistry, normalized to pCGS154 reporter without receptor; for No Chemistry (luciferase activity as ratio to pCGS154 reporter without chemistry): reporter CGS154, no chemical ligand
Protocol: An in vivo cell based assay is designed to measure transcriptional activation by the receptors of a reporter plasmid. S2 Drosophila cells (ATCC CRL-1963) are transiently transfected with luciferase reporter and receptor expression plasmids using the calcium phosphate precipitation procedure (Di Nocera and David (1983) PNAS 80, 7095-7098). S2 cells are plated in 96 well format at a density of 2×10^5 in 166.6 μl of Schneider's Drosophila media supplemented with antibiotics and 10% heat inactivated fetal bovine serum (GIBO-BRL). The following day, 33.4 μl of a calcium phosphate precipitate containing 3-6 ng of pCGS154 reporter plasmid, 3-6 ng of EcR receptor plasmid along with salmon sperm DNA to a total of 400 ng DNA per well is added. Chemical ligands are added 16-24 hours after DNA addition to the cells. Cells are then harvested and extracted 24 hours after chemistry addition following the procedures for the luciferase assay by centrifuging and resuspending the cell pellets in 100 μl of cell culture lysis reagent (Promega). Luciferase activity is quantitated using chemiluminescence (Promega) using an analytical luminescence model 2001 luminometer.
S2 cells contain Drosophila EcR and USP. The endogenous USP can be used as the heterodimerization partner for EcR or exogenous USP expression plasmid can be added to the assay.
To compare the activities of Manduca and Drosophila EcR, S2 cells are transiently transfected using the above procedure with the reporter plasmid pCGS 154 and either full-length Drosophila EcR, DDV, full-length Manduca EcR, or MMV. Tebufenozide at 0.2 µM and 2 μM is used as the chemical ligand. Luciferase assays are performed as described above. All of the results are normalized as a ratio of activity to the light unit value for the pCGS154 reporter without chemistry.
The activities of the EcR-VP16 chimeras are compared by transiently transfecting S2 cells as described in Example 3. Tebufenozide is added to the cells at 0.2 μM concentration. Results are expressed as fold activation, a ratio of the activity of the constructs with chemistry added as compared to activity of the constructs without chemistry. All results are normalized to the luciferase activity of the pCGS154 reporter without receptor addition.
(§1) The activities of the EcR-VP16 chimeras are compared by transiently transfecting S2 cells as in Example 3. Tebufenozide is added to the cells at 0.2 μM concentration. Results are expressed as fold activation of constructs with chemistry as compared to without chemistry. All results are normalized to the luciferase activity of the pCGS154 reporter without receptor.
as §1, with “chemistry addition.” for “chemistry.”

Molecule | Assay # 1 Fold Activation With Chemistry [fold] | Assay # 2 Fold Activation With Chemistry [fold] | Fold Activation With Chemistry Assay #1 (Example 7, 0.2 μM tebufenozide) [fold] | Fold Activation With Chemistry Assay #2 (Example 7, 0.2 μM tebufenozide) [fold] | No Chemistry (luciferase activity as ratio to pCGS154 reporter without chemistry) | Fold Activation With Chemistry (Example 6, third column (LLV, LMV), 0.2 μM tebufenozide) [fold]
MMV: EcR chimera: Manduca sexta C+D and E domains, VP16; SEQ ID NO:93-94 (protein) MGREELSPASSINGCSTDGEPRRQKKGPAPRQQEELCLVCGDRASGYHYNALTCEGCKGFFRRSVTKNAVYICKFGHACEMDMYMRRKCQECRLKKCLAVGMRPECVVPESTCKNKRREKEAQREKDKLPVSTTTVDDHMPAIMQCDPPPPEAARIHEVVPRFLTEKLMEQNRLKNVTPLSANQKSLIARLVWYQEGYEQPSEEDLKRVTQTWQLEEEEEEETDMPFRQITEMTILTVQLIVEFAKGLPGFSKISQSDQITLLKASSSEVMMLRVARRYDAATDSVLFANNQAYTRDNYRKAGMSYVIEDLLHFCRCMYSMSMDNVHYALLTAIVIFSDRPGLEQPLLVEEIQRYYLKTLRVYILNQHSASPRCAVLFGKILGVLTELRTLGTQNSNMCISLKLKNRKLPPFLEEIWDVAEVSTTKLAPPTDVSLGDELHLDGEDVAMAHADALDDFDLDMLGDGDSPGPGFTPHDSAPYGALDMADFEFEQMFTDALGIDEYGG | 87.65 | 151.06 | 719.2 | 595.1 | 1 | –
DrosFL: full-length Drosophila EcR expression cassette in pPacU (protein, UniProt P34021 1-878, looked up, full-length, full-length Drosophila EcR expression cassette in pPacU) MKRRWSNNGGFMRLPEESSSEVTSSSNGLVLPSGVNMSPSSLDSHDYCDQDLWLCGNESGSFGGSNGHGLSQQQQSVITLAMHGCSSTLPAQTTIIPINGNANGNGGSTNGQYVPGATNLGALANGMLNGGFNGMQQQIQNGHGLINSTTPSTPTTPLHLQQNLGGAGGGGIGGMGILHHANGTPNGLIGVVGGGGGVGLGVGGGGVGGLGMQHTPRSDSVNSISSGRDDLSPSSSLNGYSANESCDAKKSKKGPAPRVQEELCLVCGDRASGYHYNALTCEGCKGFFRRSVTKSAVYCCKFGRACEMDMYMRRKCQECRLKKCLAVGMRPECVVPENQCAMKRREKKAQKEKDKMTTSPSSQHGGNGSLASGGGQDFVKKEILDLMTCEPPQHATIPLLPDEILAKCQARNIPSLTYNQLAVIYKLIWYQDGYEQPSEEDLRRIMSQPDENESQTDVSFRHITEITILTVQLIVEFAKGLPAFTKIPQEDQITLLKACSSEVMMLRMARRYDHSSDSIFFANNRSYTRDSYKMAGMADNIEDLLHFCRQMFSMKVDNVEYALLTAIVIFSDRPGLEKAQLVEAIQSYYIDTLRIYILNRHCGDSMSLVFYAKLLSILTELRTLGNQNAEMCFSLKLKNRKLPKFLEEIWDVHAIPPSVQSHLQITQEENERLERAERMRASVGGAITAGIDCDSASTSAAAAAAQHQPQPQPQPQPSSLTQNDSQHQTQPQLQPQLPPQLQGQLQPQLQPQLQTQLQPQIQPQPQLLPVSAPVPASVTAPGSLSAVSTSSEYMGGSAAIGPITPATTSSITAAVTASSTTSAVPMGNGVGVGVGVGGNVSMYANAQTAMALMGVALHSHQEQLIGGVAVKSEHSTTA | – | – | – | – | 1 | –
DMV: EcR chimera: Drosophila melanogaster C+D domains, Manduca sexta E domain, VP16; SEQ ID NO:71-72 (protein) MGRDDLSPSSSLNGYSANESCDAKKSKKGPAPRVQEELCLVCGDRASGYHYNALTCEGCKGFFRRSVTKSAVYCCKFGRACEMDMYMRRKCQECRLKKCLAVGMRPECVVPENQCAMKRREKKAQKEKDKMTTSPSSQHGGNGSLASGGGQDFVKKEILDLMTCEPPQHATIPLLPDEILAKCQARNIPSLTYNQLAVIYKLIWYQEGYEQPSEEDLKRVTQTWQLEEEEEEETDMPFRQITEMTILTVQLIVEFAKGLPGFSKISQSDQITLLKASSSEVMMLRVARRYDAATDSVLFANNQAYTRDNYRKAGMSYVIEDLLHFCRCMYSMSMDNVHYALLTAIVIFSDRPGLEQPLLVEEIQRYYLKTLRVYILNQHSASPRCAVLFGKILGVLTELRTLGTQNSNMCISLKLKNRKLPPFLEEIWDVAEVSTTKLAPPTDVSLGDELHLDGEDVAMAHADALDDFDLDMLGDGDSPGPGFTPHDSAPYGALDMADFEFEQMFTDALGIDEYGG | 8.67 | 3.72 | – | – | – | –
MaFL: full-length Manduca EcR expression cassette in pPacU (protein, UniProt P49883 1-556, looked up, full-length, full-length Manduca EcR expression cassette in pPacU) MRRRWSNNGCFPLRMFEESSSEVTSSSAFGMPAAMVMSPESLASPEYGGLELWSYDETMTNYPAQSLLGACNAPQQQQQQQQQQPSAQPLPSMPLPMPPTTPKSENESMSSGREELSPASSINGCSTDGEPRRQKKGPAPRQQEELCLVCGDRASGYHYNALTCEGCKGFFRRSVTKNAVYICKFGHACEMDMYMRRKCQECRLKKCLAVGMRPECVVPESTCKNKRREKEAQREKDKLPVSTTTVDDHMPAIMQCDPPPPEAARIHEVVPRFLTEKLMEQNRLKNVTPLSANQKSLIARLVWYQEGYEQPSEEDLKRVTQTWQLEEEEEEETDMPFRQITEMTILTVQLIVEFAKGLPGFSKISQSDQITLLKASSSEVMMLRVARRYDAATDSVLFANNQAYTRDNYRKAGMSYVIEDLLHFCRCMYSMSMDNVHYALLTAIVIFSDRPGLEQPLLVEEIQRYYLKTLRVYILNQHSASPRCAVLFGKILGVLTELRTLGTQNSNMCISLKLKNRKLPPFLEEIWDVAEVSTTQPTPGVAAQVTPIVVDNPAAL | – | – | – | – | 1 | –
LMV: EcR chimera: Locusta migratoria C+D domains, Manduca sexta E domain, VP16; SEQ ID NO:83-84 (protein) MGREDLSPLSSLNGYSADSCDAKKKKGAAPRQQEELCLVCGDRASGYHYNALTCEGCKGFFRRSITKNAVYQCKYGNNCEIDMYMRRKCQECRLKKCLTVGMRPECVVPEYQCAVKRKEKKAQKDKDKPNSTTNGSPEVMMLKDIDAKVEPERPLSNGIKPVSPEQEELIHRLVWYQEGYEQPSEEDLKRVTQTWQLEEEEEEETDMPFRQITEMTILTVQLIVEFAKGLPGFSKISQSDQITLLKASSSEVMMLRVARRYDAATDSVLFANNQAYTRDNYRKAGMSYVIEDLLHFCRCMYSMSMDNVHYALLTAIVIFSDRPGLEQPLLVEEIQRYYLKTLRVYILNQHSASPRCAVLFGKILGVLTELRTLGTQNSNMCISLKLKNRKLPPFLEEIWDVAEVSTTKLAPPTDVSLGDELHLDGEDVAMAHADALDDFDLDMLGDGDSPGPGFTPHDSAPYGALDMADFEFEQMFTDALGIDEYGG | – | – | – | – | – | 48.8
DDV: EcR chimera: Drosophila melanogaster C+D and E domains, VP16; SEQ ID NO:95-96 (protein) MGRDDLSPSSSLNGYSANESCDAKKSKKGPAPRVQEELCLVCGDRASGYHYNALTCEGCKGFFRRSVTKSAVYCCKFGRACEMDMYMRRKCQECRLKKCLAVGMRPECVVPENQCAMKRREKKAQKEKDKMTTSPSSQHGGNGSLASGGGQDFVKKEILDLMTCEPPQHATIPLLPDEILAKCQARNIPSLTYNQLAVIYKLIWYQDGYEQPSEEDLRRIMSQPDENESQTDVSFRHITEITILTVQLIVEFAKGLPAFTKIPQEDQITLLKACSSEVMMLRMARRYDHSSDSIFFANNRSYTRDSYKMAGMADNIEDLLHFCRQMFSMKVDNVEYALLTAIVIFSDRPGLEKAQLVEAIQSYYIDTLRIYILNRHCGDSMSLVFYAKLLSILTELRTLGNQNAEMCFSLKLKNRKLPKFLEEIWDVHAIPPKLAPPTDVSLGDELHLDGEDVAMAHADALDDFDLDMLGDGDSPGPGFTPHDSAPYGALDMADFEFEQMFTDALGIDEYGG | 1.01 | 0.68 | – | – | 1 | –

From patent US6958236B2, “Control of gene expression in plants” (priority 2000, dated 2005)
